Measurements reported in patent US20230265187A1 (published 2023).

Key:
[1] = biological target: T1, His-tagged cynomolgus monkey TIGIT (Acro Biosystems #TIT-05223) (cynomolgus monkey, UniProt A0A7N9I9V4 89-209); experiment: ELISA, coated His-TIGIT, 1 ug/ml
T1 construct: Bought protein; also called cyno TIGIT; cynomolgus TIGIT; not shown: His tag

[2] = biological target: T2, his-tagged human TIGIT (Acro Biosystems #TIT-H52H3) (human, UniProt Q495A1 22-141); experiment: ELISA, coated His-TIGIT, 1 ug/ml
T2 construct: Bought protein; also called His-tagged-TIGIT (human); not shown: his tag
T2 sequence (looked up): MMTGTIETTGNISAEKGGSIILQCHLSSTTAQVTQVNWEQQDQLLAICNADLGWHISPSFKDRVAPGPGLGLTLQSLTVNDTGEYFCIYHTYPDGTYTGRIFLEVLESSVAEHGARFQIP

[3] = biological target: T3, his-tagged murine TIGIT (Acro Biosystems #TIT-M52E6) (murine, UniProt P86176 29-148, limits assumed); experiment: ELISA, coated His-TIGIT, 1 ug/ml
T3 construct: Bought protein; also called mouse his-tagged TIGIT; not shown: his tag
T3 sequence (looked up): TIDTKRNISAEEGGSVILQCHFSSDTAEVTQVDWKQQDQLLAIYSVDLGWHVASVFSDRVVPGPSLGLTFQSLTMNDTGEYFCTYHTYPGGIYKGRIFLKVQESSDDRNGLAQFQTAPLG

[4] = biological target: T4, human TIGIT on Jurkat cells (TIGIT/NFAT reporter Jurkat cells, BPS Bioscience #60538); Promega TIGIT Effector … (human, UniProt Q495A1 22-244); experiment: flow cytometry, TIGIT/NFAT Jurkat cells, 10 ug/ml
T4 construct: whole, on cells; Same protein on two bought Jurkat lines (flow cytometry: BPS; bioassay: Promega); also called hu TIGIT cells; cells expressing human TIGIT
T4 sequence (looked up): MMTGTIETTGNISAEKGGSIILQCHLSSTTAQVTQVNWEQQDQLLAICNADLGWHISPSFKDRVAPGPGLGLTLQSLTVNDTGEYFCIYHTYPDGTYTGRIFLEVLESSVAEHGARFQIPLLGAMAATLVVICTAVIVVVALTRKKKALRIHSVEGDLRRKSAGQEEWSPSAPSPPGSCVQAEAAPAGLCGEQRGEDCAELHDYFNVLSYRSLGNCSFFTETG

[5] = biological target: T1, His-tagged cynomolgus monkey TIGIT …; experiment: SPR (Carterra LSA), scFv-Fc captured, His-TIGIT analyte
In short: (§1)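 Affinity from His-TIGIT analyte injected in 1:2 serial dilution over antibody captured as scFv-Fc via amine-coupled goat anti-human Fc on an HC30M surface. Supernatants diluted 30-fold in HBSTE; kinetic fitting.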

[6] = biological target: T2, his-tagged human TIGIT (Acro Biosystems …); experiment: as above
In short: as §1

[7] = biological target: T3, his-tagged murine TIGIT (Acro …); experiment: as above
In short: as §1

[8] = biological target: T1, His-tagged cynomolgus monkey TIGIT …; experiment: SPR (Carterra LSA), scFv-Fc captured, His-TIGIT analyte; repeat
Description: (§2) Binding affinities of anti-TIGIT antibodies to human, cyno, and murine TIGIT were measured by Surface Plasmon Resonance (SPR) on a Carterra LSA instrument. Goat anti-human Fc antibody was amine coupled to a HC30M chip. ScFv-Fc supernatants were diluted 30-fold with HBSTE and were captured by the anti-human Fc coupled HC30M chip. A 1:2 dilution series of his-tagged human TIGIT, starting at 400 nM, was injected onto the chip for binding. A dilution series was also carried out for cyno TIGIT and murine TIGIT. Data were analyzed using the Carterra™ Kinetics software.

[9] = biological target: T3, his-tagged murine TIGIT (Acro …); experiment: as above
Description: as §2

[10] = biological target: T4, human TIGIT on Jurkat cells (TIGIT/NFAT …); experiment: cell-based or functional assay
[11] = biological target: T1, His-tagged cynomolgus monkey TIGIT …; experiment: SPR (Carterra LSA), antibody captured, His-TIGIT analyte; repeat
[12] = biological target: T1, His-tagged cynomolgus monkey TIGIT …; experiment: SPR (Carterra LSA), antibody captured, His-TIGIT analyte
[13] = biological target: T2, his-tagged human TIGIT (Acro Biosystems …); experiment: as above

T1 sequence (A0A7N9I9V4 entry or part of it): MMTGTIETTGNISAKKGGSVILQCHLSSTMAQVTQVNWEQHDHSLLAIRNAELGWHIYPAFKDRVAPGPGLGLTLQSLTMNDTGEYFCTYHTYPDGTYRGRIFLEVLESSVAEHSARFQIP

Row | Elisa OD450 [1] [OD450] | Elisa OD450 [2] [OD450] | Elisa OD450 [3] [OD450] | MFI [4] [MFI] | Kd [5] [nM] | Kd [6] [nM] | Kd [7] [nM] | Kd [8] [nM] | Kd [9] [nM] | max. signal (% of 22G2) [10] | Kd [11] [nM] | Kd [12] [nM] | Kd [13] [nM] | Binder
1 | 1.8 | 2.03 | 1.85 | 10900 | 33 | 0.322 | 235 | 16 | 91 | 100 % of 22G2 |  |  |  | 43645p1.F11 (scFv, V domains shown) VH: EVQLLESGGGLVQPGGSLRLSCAASGFTFSSYWMSWVRQAPGKGLEWVSGIHISDSTYYADSVKGRFTISRDNSKNTLYLQMNSLRAEDTAVYYCAKGHTVLQYGMDVWGQGTTVTVSS VL: QSGLTQPPSASGTPGQRVTISCSGDISNTRNNYVSWYQQLPGTAPKLLIYRNSQRPSGVPDRFSGSKSATSASLAISGLQSEDEADYYCGTWDNTLNAWVFGGGTKLTVL
2 |  |  |  |  |  |  |  |  |  |  | 3.4 | 16.1 | 0.202 | benchmark 22G2 (antibody, V domains shown) VH: QVHLQESGPGLVKPSETLSLTCTVSGGSVSSGIYYWSWIRQPPGKGLEWIGYIYYSGSTNYNPSLKSRVTISVDTSKNQFSLKLSSVTAADTAVYYCARDYYVSGNYYNVDYYFFGVDVWGQGTTVTVSS VL: EIVLTQSPATLSLSPGERATLSCRASQSVSSYLAWYQQKPGQAPRLLIYDASNRATGIPARFSGSGSGTDFTLTISSLEPEDFAVYYCQQRSNWPPLFTFGPGTKVDIK
